Laboratory results: publication PMC2583301
pKd: −log10 of the molar value.

Target: yNap1 C200A/C249A/C272A labelled with Alexa dye at Cys-414 (yNap1m*) (yeast) (UniProt P25293)
Test: other fluorescence titration

linker histone H1 (natural protein)
pKd: 8.52
stoichiometry N (H1 per yNap1 dimer): 2
